Data reported in the supplement of paper PMC10065799, “High-throughput profiling of sequence recognition by tyrosine kinases and SH2 domains using bacterial peptide display” (eLife, 2023).

Experiments:
AncSZ = test: phosphorylation enrichment, bacterial display (enrichment ratio); higher = better substrate or ligand; peptides without Tyr show the background
EPHB1 = EPHB1 (UniProt P54762); test: as above
EPHB2 = EPHB2 (UniProt P29323); test: as above
FGFR1 = FGFR1 (UniProt P11362); test: as above
Chain of FGFR1 (P11362 whole entry, looked up): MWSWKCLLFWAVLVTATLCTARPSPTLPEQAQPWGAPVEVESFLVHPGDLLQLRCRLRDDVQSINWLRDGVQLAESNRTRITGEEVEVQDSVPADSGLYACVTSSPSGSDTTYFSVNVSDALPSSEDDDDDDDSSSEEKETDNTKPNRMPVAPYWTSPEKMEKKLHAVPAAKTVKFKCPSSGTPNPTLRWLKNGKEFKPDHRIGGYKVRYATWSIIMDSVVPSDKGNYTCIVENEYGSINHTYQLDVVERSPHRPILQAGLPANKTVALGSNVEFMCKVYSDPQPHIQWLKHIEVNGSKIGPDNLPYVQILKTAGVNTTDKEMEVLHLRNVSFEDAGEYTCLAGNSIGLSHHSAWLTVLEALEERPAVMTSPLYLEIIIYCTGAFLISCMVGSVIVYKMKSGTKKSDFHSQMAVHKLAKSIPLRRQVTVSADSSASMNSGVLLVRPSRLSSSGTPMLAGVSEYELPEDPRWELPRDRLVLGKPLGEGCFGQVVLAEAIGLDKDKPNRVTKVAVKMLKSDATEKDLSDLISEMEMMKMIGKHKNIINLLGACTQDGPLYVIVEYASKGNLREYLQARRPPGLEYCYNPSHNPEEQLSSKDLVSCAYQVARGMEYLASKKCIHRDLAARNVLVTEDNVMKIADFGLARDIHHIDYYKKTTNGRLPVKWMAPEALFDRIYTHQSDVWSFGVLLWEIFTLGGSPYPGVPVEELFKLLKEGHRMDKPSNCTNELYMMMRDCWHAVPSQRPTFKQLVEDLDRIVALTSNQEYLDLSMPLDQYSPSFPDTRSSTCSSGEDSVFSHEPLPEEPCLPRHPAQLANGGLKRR

FGFR3 = FGFR3 (UniProt P22607); test: as above
Fer (mouse) = test: as above
Fes = Fes (UniProt P07332); test: as above
Chain of Fes (P07332 whole entry, looked up): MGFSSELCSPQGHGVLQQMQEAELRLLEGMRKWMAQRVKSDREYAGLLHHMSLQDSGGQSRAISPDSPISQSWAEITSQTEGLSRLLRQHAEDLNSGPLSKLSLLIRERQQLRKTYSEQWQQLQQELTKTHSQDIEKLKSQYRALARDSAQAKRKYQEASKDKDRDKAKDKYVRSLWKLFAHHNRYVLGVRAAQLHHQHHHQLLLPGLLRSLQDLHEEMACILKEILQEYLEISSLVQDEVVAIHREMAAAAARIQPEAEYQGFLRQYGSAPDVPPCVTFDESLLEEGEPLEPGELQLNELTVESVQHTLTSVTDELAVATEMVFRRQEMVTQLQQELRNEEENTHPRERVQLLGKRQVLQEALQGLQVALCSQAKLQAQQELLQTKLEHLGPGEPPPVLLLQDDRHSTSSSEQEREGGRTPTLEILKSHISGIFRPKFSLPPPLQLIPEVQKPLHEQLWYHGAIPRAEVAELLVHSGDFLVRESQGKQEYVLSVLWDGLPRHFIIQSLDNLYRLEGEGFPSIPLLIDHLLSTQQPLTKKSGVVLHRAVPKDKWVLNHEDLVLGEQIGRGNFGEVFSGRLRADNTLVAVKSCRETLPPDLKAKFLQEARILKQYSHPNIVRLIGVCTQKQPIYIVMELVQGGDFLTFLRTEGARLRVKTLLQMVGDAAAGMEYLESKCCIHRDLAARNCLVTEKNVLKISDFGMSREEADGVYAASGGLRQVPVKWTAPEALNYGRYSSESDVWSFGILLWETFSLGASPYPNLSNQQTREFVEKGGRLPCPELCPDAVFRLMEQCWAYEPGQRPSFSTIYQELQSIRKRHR

Fyn = Fyn (UniProt P06241); test: as above
Chain of Fyn (P06241 whole entry, looked up): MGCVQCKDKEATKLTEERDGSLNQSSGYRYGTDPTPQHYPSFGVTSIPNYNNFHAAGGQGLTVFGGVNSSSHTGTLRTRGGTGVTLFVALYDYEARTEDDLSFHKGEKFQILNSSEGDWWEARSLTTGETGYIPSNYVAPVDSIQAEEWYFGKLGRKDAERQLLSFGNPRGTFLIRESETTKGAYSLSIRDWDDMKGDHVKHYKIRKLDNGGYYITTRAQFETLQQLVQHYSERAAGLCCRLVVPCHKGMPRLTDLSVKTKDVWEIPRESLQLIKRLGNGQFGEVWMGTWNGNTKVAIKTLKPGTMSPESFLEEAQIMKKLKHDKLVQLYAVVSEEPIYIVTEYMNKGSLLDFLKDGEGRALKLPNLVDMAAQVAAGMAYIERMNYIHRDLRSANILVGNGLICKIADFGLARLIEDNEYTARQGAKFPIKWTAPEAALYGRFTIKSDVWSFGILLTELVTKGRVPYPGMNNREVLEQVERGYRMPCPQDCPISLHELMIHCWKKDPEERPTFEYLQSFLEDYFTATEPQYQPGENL

Hck = Hck (UniProt P08631); test: as above
Chain of Hck (P08631 whole entry, looked up): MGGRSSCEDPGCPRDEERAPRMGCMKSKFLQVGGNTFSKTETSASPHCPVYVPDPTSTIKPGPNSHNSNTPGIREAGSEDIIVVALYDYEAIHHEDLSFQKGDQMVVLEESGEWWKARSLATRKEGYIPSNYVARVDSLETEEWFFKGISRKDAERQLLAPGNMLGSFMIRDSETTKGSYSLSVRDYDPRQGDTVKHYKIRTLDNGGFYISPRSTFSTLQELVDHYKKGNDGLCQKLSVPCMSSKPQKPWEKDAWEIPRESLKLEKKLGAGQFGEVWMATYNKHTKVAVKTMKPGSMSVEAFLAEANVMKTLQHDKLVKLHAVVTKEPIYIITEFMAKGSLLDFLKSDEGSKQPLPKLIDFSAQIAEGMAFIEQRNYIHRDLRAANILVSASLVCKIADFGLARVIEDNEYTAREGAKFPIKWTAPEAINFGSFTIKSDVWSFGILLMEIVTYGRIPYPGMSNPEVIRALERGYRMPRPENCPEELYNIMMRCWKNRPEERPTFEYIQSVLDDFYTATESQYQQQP

Jak2 = Jak2 (UniProt O60674); test: as above
MERTK = MERTK (UniProt Q12866); test: as above
Chain of MERTK (Q12866 whole entry, looked up): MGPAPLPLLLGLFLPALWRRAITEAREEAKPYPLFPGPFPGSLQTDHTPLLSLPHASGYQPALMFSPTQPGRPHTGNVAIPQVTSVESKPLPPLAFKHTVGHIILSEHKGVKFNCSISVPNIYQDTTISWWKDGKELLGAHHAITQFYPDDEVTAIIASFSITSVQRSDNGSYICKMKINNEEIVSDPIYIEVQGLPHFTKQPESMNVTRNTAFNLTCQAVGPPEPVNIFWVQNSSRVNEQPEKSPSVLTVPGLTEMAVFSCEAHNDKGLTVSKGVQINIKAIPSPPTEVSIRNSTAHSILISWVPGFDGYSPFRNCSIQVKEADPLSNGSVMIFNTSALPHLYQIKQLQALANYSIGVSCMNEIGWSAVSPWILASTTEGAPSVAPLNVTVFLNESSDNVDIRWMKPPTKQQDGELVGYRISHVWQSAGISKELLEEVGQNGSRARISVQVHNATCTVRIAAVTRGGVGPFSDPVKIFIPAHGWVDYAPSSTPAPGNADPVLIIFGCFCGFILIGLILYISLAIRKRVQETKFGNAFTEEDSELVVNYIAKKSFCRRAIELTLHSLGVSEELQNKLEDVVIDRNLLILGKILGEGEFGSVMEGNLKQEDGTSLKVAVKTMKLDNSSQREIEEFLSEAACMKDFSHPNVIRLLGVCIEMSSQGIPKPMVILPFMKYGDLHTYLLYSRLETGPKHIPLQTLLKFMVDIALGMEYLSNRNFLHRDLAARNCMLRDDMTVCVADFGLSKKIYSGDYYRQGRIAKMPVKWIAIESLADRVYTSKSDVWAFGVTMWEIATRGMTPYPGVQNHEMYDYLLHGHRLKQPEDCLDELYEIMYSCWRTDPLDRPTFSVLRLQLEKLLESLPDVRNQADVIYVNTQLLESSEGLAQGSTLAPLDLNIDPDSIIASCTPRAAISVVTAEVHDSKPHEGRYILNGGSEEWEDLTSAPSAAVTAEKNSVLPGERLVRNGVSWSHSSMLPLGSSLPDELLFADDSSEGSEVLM

c-Abl (mouse) = test: as above
c-Src = test: as above
Grb2 SH2 = Grb2 SH2 (UniProt P62993); test: SH2 binding enrichment of the phosphorylated peptide, bacterial display (enrichment ratio); higher = better substrate or ligand; peptides without Tyr show the background
Chain of Grb2 SH2 (P62993 whole entry, looked up): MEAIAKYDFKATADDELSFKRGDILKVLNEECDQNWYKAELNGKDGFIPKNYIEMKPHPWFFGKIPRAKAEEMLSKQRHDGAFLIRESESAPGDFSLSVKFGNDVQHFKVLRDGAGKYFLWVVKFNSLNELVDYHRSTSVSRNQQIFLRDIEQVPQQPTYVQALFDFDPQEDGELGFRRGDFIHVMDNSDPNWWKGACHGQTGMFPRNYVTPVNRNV

SHP2-C SH2 = test: as above
c-Src SH2 = test: as above
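For SH2 binding enrichment of the phosphorylated peptide, bacterial display in this document: peptide library displayed on the E. coli surface as eCPX fusions, selected cells deep-sequenced, score is each peptide's frequency after selection divided by its frequency in the input.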
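For phosphorylation enrichment, bacterial display in this document: 11-residue human phosphosite peptides and single-mutation variants displayed on the E. coli surface, counted by deep sequencing, each peptide's frequency after selection divided by its frequency in the unselected input library; frequency after pTyr selection over input frequency; kinase dosed for 20-30% of maximal phosphorylation in three min.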

Chain of EPHB2 (P29323 whole entry, looked up): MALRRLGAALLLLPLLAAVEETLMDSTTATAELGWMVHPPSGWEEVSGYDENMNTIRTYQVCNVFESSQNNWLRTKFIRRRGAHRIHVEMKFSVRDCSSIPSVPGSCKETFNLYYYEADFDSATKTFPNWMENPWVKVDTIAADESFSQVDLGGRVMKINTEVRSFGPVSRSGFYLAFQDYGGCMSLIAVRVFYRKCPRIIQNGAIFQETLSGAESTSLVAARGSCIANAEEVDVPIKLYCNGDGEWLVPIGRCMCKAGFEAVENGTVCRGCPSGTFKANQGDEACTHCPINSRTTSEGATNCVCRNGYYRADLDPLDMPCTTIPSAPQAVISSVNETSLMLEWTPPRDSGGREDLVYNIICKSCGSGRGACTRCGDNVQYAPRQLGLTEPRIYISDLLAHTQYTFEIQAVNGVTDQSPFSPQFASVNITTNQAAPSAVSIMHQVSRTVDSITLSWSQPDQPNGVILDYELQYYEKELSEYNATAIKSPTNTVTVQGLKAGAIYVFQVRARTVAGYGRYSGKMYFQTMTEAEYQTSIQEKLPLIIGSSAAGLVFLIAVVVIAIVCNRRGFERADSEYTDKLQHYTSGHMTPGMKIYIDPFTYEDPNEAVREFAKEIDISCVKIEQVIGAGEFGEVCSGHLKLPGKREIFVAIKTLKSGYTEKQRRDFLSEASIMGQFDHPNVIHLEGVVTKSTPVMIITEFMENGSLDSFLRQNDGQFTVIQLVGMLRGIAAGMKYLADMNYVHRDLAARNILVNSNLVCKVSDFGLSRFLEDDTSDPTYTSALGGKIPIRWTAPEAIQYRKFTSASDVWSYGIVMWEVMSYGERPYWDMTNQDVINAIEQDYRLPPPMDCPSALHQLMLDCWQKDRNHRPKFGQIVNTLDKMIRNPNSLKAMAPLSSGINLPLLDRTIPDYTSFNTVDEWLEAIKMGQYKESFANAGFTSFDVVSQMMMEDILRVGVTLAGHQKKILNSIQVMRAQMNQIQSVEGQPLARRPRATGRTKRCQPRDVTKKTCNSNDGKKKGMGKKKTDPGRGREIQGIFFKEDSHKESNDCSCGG

Row | Sequence | phosphorylation enrichment (AncSZ) | phosphorylation enrichment (EPHB1) | phosphorylation enrichment (EPHB2) | phosphorylation enrichment (FGFR1) | phosphorylation enrichment (FGFR3) | phosphorylation enrichment (Fer (mouse)) | phosphorylation enrichment (Fes) | phosphorylation enrichment (Fyn) | phosphorylation enrichment (Hck) | phosphorylation enrichment (Jak2) | phosphorylation enrichment (MERTK) | phosphorylation enrichment (c-Abl (mouse)) | phosphorylation enrichment (c-Src) | SH2 binding enrichment (Grb2 SH2) | SH2 binding enrichment (SHP2-C SH2) | SH2 binding enrichment (c-Src SH2)
1 | GESLTYVSTTF [C1orf162_Y120_A121V] | 0.954 | 0.532 | 0.563 | 0.508 | 0.62 | 0.512 | 1.07 | 0.569 | 0.621 | 0.691 | 0.538 | 0.494 | 0.664 | 0.843 | 0.712 | 0.519
2 | GFGGGYGGVLT [KRT19_Y65_A60G_YF] | 0.626 | 0.452 | 0.444 | 0.491 | 0.522 | 0.492 | 0.696 | 0.47 | 0.488 | 0.575 | 0.381 | 0.493 | 0.45 | 1.06 | 0.999 | 0.478
3 | GFPVHYTDMSN [DNMT3B_Y815_V818M] | 0.947 | 0.388 | 0.439 | 0.546 | 0.501 | 0.419 | 0.699 | 0.536 | 0.417 | 0.667 | 0.545 | 0.568 | 0.416 | 0.787 | 6.03 | 3.25
4 | GFPVHYTDVSN [DNMT3B_Y815] | 0.661 | 0.477 | 0.485 | 0.439 | 0.686 | 0.708 | 0.653 | 0.43 | 0.433 | 0.51 | 0.526 | 0.5 | 0.398 | 0.793 | 7.67 | 3.96
5 | GFSRHCEDGFP [CTNND1_Y217_Y217C_YF] | 0.767 | 0.497 | 0.555 | 0.471 | 0.697 | 0.485 | 0.958 | 0.437 | 0.441 | 0.724 | 0.402 | 0.83 | 0.441 | 0.774 | 0.663 | 0.479
6 | GFWPRYVKVGS [NOG_Y172_R167G] | 0.746 | 0.594 | 0.532 | 0.554 | 0.653 | 0.388 | 0.97 | 0.493 | 0.532 | 0.695 | 0.447 | 0.568 | 0.402 | 0.645 | 0.834 | 0.443
7 | GGQVFHNSEFG [FLT4_Y1333_Y1333H_YF] | 0.593 | 0.4 | 0.451 | 0.448 | 0.572 | 0.375 | 0.668 | 0.424 | 0.379 | 0.534 | 0.395 | 0.531 | 0.377 | 0.761 | 0.714 | 0.505
8 | GGYTCCCDGKK [PROS1_Y266_Y266C] | 0.943 | 0.442 | 0.819 | 0.444 | 0.618 | 0.513 | 1 | 0.507 | 0.454 | 0.729 | 0.436 | 0.792 | 0.426 | 0.701 | 0.415 | 0.477
9 | GGYTCYCDGKK [PROS1_Y266] | 0.985 | 0.537 | 0.474 | 0.457 | 0.728 | 0.484 | 1.38 | 0.403 | 0.462 | 1.2 | 0.439 | 0.915 | 0.499 | 0.766 | 0.79 | 0.549
10 | GHLFANDWISI [BEST1_Y227_Y227N_YF] | 0.703 | 0.424 | 0.625 | 0.43 | 0.484 | 0.427 | 0.789 | 0.399 | 0.502 | 0.782 | 0.421 | 0.627 | 0.469 | 0.904 | 0.708 | 0.493
11 | GIADDYDKKKL [EIF1_Y54] | 0.882 | 0.456 | 0.565 | 0.465 | 0.565 | 0.4 | 0.943 | 0.467 | 0.512 | 0.845 | 0.383 | 0.667 | 0.377 | 0.931 | 0.496 | 0.452
12 | GIVEDYRPRFY [ACVRL1_Y421_P424R] | 0.7 | 0.375 | 0.615 | 0.409 | 0.521 | 0.519 | 0.952 | 0.447 | 0.537 | 0.619 | 0.674 | 0.585 | 0.464 | 0.882 | 0.757 | 0.481
13 | GIVTGYLVLKE [DNMT3B_Y588_A585V] | 1.07 | 0.684 | 0.494 | 0.553 | 0.895 | 0.647 | 1.4 | 0.492 | 0.505 | 1.31 | 0.524 | 0.833 | 0.448 | 1.11 | 1.31 | 0.735
14 | GKTQQYDCKWY [BCR_Y751] | 0.864 | 0.554 | 0.532 | 0.464 | 0.598 | 0.432 | 1.05 | 0.441 | 0.554 | 1.05 | 0.515 | 0.769 | 0.55 | 0.805 | 0.601 | 0.758
15 | GKVFIYHGSSL [ITGA7_Y458] | 1.19 | 0.655 | 0.614 | 0.596 | 0.761 | 0.546 | 1.3 | 0.42 | 0.571 | 1.02 | 0.364 | 0.672 | 0.369 | 0.996 | 0.707 | 0.598
16 | GLCSYYETSKM [MAGED2_Y449_R446C] | 1.39 | 1.67 | 1.11 | 6.32 | 4.99 | 1.01 | 1.18 | 0.68 | 0.926 | 1.3 | 1.25 | 0.955 | 1.81 | 0.818 | 0.72 | 1.2
17 | GLDGRYLLRDS [SH2D1A_Y29_S28R] | 0.651 | 0.423 | 0.448 | 0.531 | 0.488 | 0.637 | 0.734 | 0.372 | 0.395 | 0.51 | 0.41 | 0.441 | 0.436 | 0.817 | 0.7 | 0.515

Row | Sequence | phosphorylation enrichment (AncSZ) | phosphorylation enrichment (EPHB1) | phosphorylation enrichment (EPHB2) | phosphorylation enrichment (FGFR1) | phosphorylation enrichment (FGFR3) | phosphorylation enrichment (Fer (mouse)) | phosphorylation enrichment (Fes) | phosphorylation enrichment (Fyn) | phosphorylation enrichment (Hck) | phosphorylation enrichment (Jak2) | phosphorylation enrichment (MERTK) | phosphorylation enrichment (c-Abl (mouse)) | phosphorylation enrichment (c-Src) | SH2 binding enrichment (Grb2 SH2) | SH2 binding enrichment (SHP2-C SH2) | SH2 binding enrichment (c-Src SH2)
18 | GLNKDYRMVVN [HINT1_Y94_G93D] | 0.652 | 0.426 | 0.44 | 0.51 | 0.504 | 0.448 | 0.605 | 0.455 | 0.437 | 0.566 | 0.424 | 0.447 | 0.415 | 0.734 | 0.635 | 0.451
19 | GLRCGYGVLGG [KRTAP20-2_Y15_Y13C] | 0.775 | 0.484 | 0.387 | 0.381 | 0.612 | 0.484 | 0.854 | 0.466 | 0.432 | 0.825 | 0.359 | 0.617 | 0.73 | 0.806 | 0.572 | 0.52
20 | GMAHNYRNRSQ [AASS_Y188_S191R] | 0.599 | 0.414 | 0.388 | 0.344 | 0.401 | 0.358 | 0.629 | 0.487 | 0.523 | 0.488 | 0.466 | 0.57 | 0.481 | 0.703 | 0.392 | 0.48
21 | GMIQAYSSSQR [DES_Y5_S2I] | 0.485 | 0.401 | 0.334 | 0.384 | 0.389 | 0.319 | 0.509 | 0.346 | 0.412 | 0.442 | 0.357 | 0.42 | 0.37 | 0.872 | 0.712 | 0.759
22 | GMKIVYVYVKK [DNAI2_Y5_E2K] | 1.11 | 0.567 | 0.594 | 0.479 | 0.587 | 0.605 | 1.12 | 0.466 | 0.459 | 0.899 | 0.418 | 0.801 | 0.473 | 1.23 | 0.741 | 0.646
23 | GMTLSYLFWEP [NDUFS8_Y74_R77W] | 1.85 | 0.875 | 0.737 | 4.73 | 3.63 | 3.7 | 1.59 | 0.501 | 0.629 | 5.21 | 1.43 | 1.32 | 0.659 | 0.984 | 0.916 | 0.737
24 | GNYSGYDDAWD [POLR1C_Y36] | 1.62 | 6.73 | 5.87 | 0.723 | 0.931 | 0.742 | 1.32 | 0.597 | 0.578 | 1.29 | 0.637 | 0.964 | 0.586 | 0.833 | 0.595 | 5.84
25 | GPKSTYISSAA [GOLGA5_Y62] | 0.731 | 0.331 | 0.506 | 0.414 | 0.51 | 0.403 | 0.7 | 0.467 | 0.492 | 0.638 | 0.565 | 0.488 | 0.508 | 0.715 | 0.52 | 0.403
26 | GQAPGYSYTAA [CYCS_Y47] | 0.601 | 0.483 | 0.5 | 0.43 | 0.481 | 0.433 | 0.665 | 0.471 | 0.502 | 0.615 | 0.438 | 0.56 | 0.416 | 0.873 | 0.659 | 0.791
27 | GQDLFYEDEDL [PACS1_Y303] | 1.28 | 0.922 | 0.628 | 0.626 | 1.24 | 1.79 | 1.39 | 0.688 | 0.737 | 1.43 | 0.746 | 0.839 | 0.598 | 0.711 | 0.636 | 0.588
28 | GREEFYVHFVG [KAT8_Y90_YF] | 1.23 | 0.661 | 0.602 | 0.582 | 0.841 | 0.513 | 1.52 | 0.458 | 0.581 | 1.37 | 0.559 | 0.896 | 0.693 | 0.867 | 0.621 | 0.472
29 | GRLFAYPDTHR [CAT_Y358] | 0.641 | 0.49 | 0.434 | 0.44 | 0.538 | 0.476 | 0.756 | 0.421 | 0.397 | 0.605 | 0.344 | 0.597 | 0.356 | 0.84 | 0.909 | 0.508
30 | GTFEDYVEGLR [MYL6_Y89_YF] | 1.08 | 0.534 | 0.534 | 0.545 | 0.685 | 0.454 | 1.11 | 0.427 | 0.508 | 0.971 | 0.461 | 0.688 | 0.416 | 0.9 | 0.553 | 0.5
31 | GTTIHYNFMCN [TP53_Y234_C229G_YF] | 1.12 | 0.743 | 0.718 | 0.544 | 0.822 | 0.63 | 1.32 | 0.477 | 0.532 | 1.13 | 0.465 | 0.888 | 0.467 | 0.715 | 0.613 | 0.603
32 | GTYEDYVEGLR [MYL6_Y89] | 1.31 | 1.31 | 1.19 | 0.617 | 0.743 | 0.579 | 1.22 | 1.14 | 0.726 | 0.885 | 0.513 | 0.748 | 1.43 | 0.777 | 0.645 | 0.766
33 | GVRLYYRVRES [RB1_Y454_M457R] | 1.54 | 0.435 | 0.447 | 0.662 | 0.781 | 0.483 | 1.08 | 0.435 | 0.408 | 0.964 | 0.403 | 0.39 | 0.285 | 0.769 | 0.872 | 0.393
